Series [1] concerns HeLa Kyoto. As to the kind of experiment: melting temperature (median over replicates), in situ; higher = more thermally stable.
In series [2] the test system is HeLa Kyoto. As to the kind of experiment: solubility change mitosis vs G1/S (difference of NP-40 vs SDS log2 ratios) (log2 ratio difference); higher = more soluble in mitosis.
Series [3] has as its system HeLa Kyoto. As to the kind of experiment: thermal stability score vs G1/S (z-score of summed log2 fold changes over temperatures); higher = more thermally stable than in G1/S.
Series [4] has as its system HeLa Kyoto. As to the kind of experiment: solubility in G1/S (NP-40 vs SDS abundance) (log2 ratio); higher = more soluble. The settings on record: cell cycle stage: G1/S.
[5] abbreviates: cell cycle stage: early G1 (4.5 h after nocodazole release).
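Throughout, for melting temperature (median over replicates), in situ: HeLa Kyoto cells synchronized by double thymidine or nocodazole block, proteins quantified by TMT10plex mass spectrometry, three independent biological replicates.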
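Throughout, for solubility change mitosis vs G1/S (difference of NP-40 vs SDS log2 ratios): synchronized HeLa Kyoto cells (double thymidine block for G1/S, nocodazole release for mitosis), protein amounts in NP-40 versus SDS lysates quantified by mass spectrometry, three biological replicates.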
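Throughout, for solubility in G1/S (NP-40 vs SDS abundance): HeLa Kyoto cells arrested at G1/S by double thymidine block, proteins quantified by TMT10plex mass spectrometry in mild NP-40 versus SDS extracts, three biological replicates.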
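Throughout, for thermal stability score vs G1/S (z-score of summed log2 fold changes over temperatures): synchronized HeLa Kyoto cells, proteins quantified by TMT10plex mass spectrometry, three biological replicates, mitosis taken 0.5 h after nocodazole release, G1/S directly after double thymidine block.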

Consider “MAAPKGSLWVRTQLGLPPLLLLTMALAGGSGTASAEAFDSVLGDTASCHRACQLTYPLHTYPKEEELYACQRGCRLFSICQFVDDGIDLNRTKLECESACTEAYSQSDEQYACHLGCQNQLPFAELRQEQLMSLMPKMHLLFPLTLVRSFWSDMMDSAQSFITSSWTFYLQADDGKIVIFQSKPEIQYAPHLEQEPTNLRESSLSKMSYLQMRNSQAHRNFLEDGESDGFLRCLSLNSGWILTTTLVLSVMVLLWICCATVATAVEQYVPSEKLSIYGDLEFMNEQKLNRYPASSLVVVRSKTEDHEEAGPLPTKVNLAHSEI [TMEM59]”, for which the melting temperature in the series with HeLa Kyoto [1] (cell cycle stage: G1/S) stood at 54.8 °C; with HeLa Kyoto [1] (cell cycle stage: mitosis) it was 53.1 °C. Besides, the “solubility change mitosis (log2)” value in the series on HeLa Kyoto [2] is 0.0194. Moreover, the thermal stability score in the series with HeLa Kyoto [3] (setting [5]) is 0.0515; in the series with HeLa Kyoto [3] (cell cycle stage: mitosis) it was -0.215. The “solubility in G1/S (log2)” value with HeLa Kyoto [4] came to 0.0662.

Consider “MAAPMTPAARPEDYEAALNAALADVPELARLLEIDPYLKPYAVDFQRRYKQFSQILKNIGENEGGIDKFSRGYESFGVHRCADGGLYCKEWAPGAEGVFLTGDFNGWNPFSYPYKKLDYGKWELYIPPKQNKSVLVPHGSKLKVVITSKSGEILYRISPWAKYVVREGDNVNYDWIHWDPEHSYEFKHSRPKKPRSLRIYESHVGISSHEGKVASYKHFTCNVLPRIKGLGYNCIQLMAIMEHAYYASFGYQITSFFAASSRYGTPEELQELVDTAHSMGIIVLLDVVHSHASKNSADGLNMFDGTDSCYFHSGPRGTHDLWDSRLFAYSSWEILRFLLSNIRWWLEEYRFDGFRFDGVTSMLYHHHGVGQGFSGDYSEYFGLQVDEDALTYLMLANHLVHTLCPDSITIAEDVSGMPALCSPISQGGGGFDYRLAMAIPDKWIQLLKEFKDEDWNMGDIVYTLTNRRYLEKCIAYAESHDQALVGDKSLAFWLMDAEMYTNMSVLTPFTPVIDRGIQLHKMIRLITHGLGGEGYLNFMGNEFGHPEWLDFPRKGNNESYHYARRQFHLTDDDLLRYKFLNNFDRDMNRLEERYGWLAAPQAYVSEKHEGNKIIAFERAGLLFIFNFHPSKSYTDYRVGTALPGKFKIVLDSDAAEYGGHQRLDHSTDFFSEAFEHNGRPYSLLVYIPSRVALILQNVDLPN [GBE1]”, for which the values for the melting temperature in the series on HeLa Kyoto [1] (cell cycle stage: G1/S) and with HeLa Kyoto [1] (cell cycle stage: mitosis) were 49.7 °C and 49.6 °C, respectively. Also, the “solubility change mitosis (log2)” value with HeLa Kyoto [2] is -0.104. The values for the thermal stability score in the series with HeLa Kyoto [3] (setting [5]) and with HeLa Kyoto [3] (cell cycle stage: mitosis) were -0.0259 and 0.998, respectively. Also, in the series with HeLa Kyoto [4], the “solubility in G1/S (log2)” value was -0.184.

In the case of “MAAPQDVHVRICNQEIVKFDLEVKALIQDIRDCSGPLSALTELNTKVKEKFQQLRHRIQDLEQLAKEQDKESEKQLLLQEVENHKKQMLSNQASWRKANLTCKIAIDNLEKAELLQGGDLLRQRKTTKESLAQTSSTITESLMGISRMMAQQVQQSEEAMQSLVTSSRTILDANEEFKSMSGTIQLGRKLITKYNRRELTDKLLIFLALALFLATVLYIVKKRLFPFL [BNIP1]”, the melting temperature amounted to 52.3 °C in the series with HeLa Kyoto [1] (cell cycle stage: G1/S) and 51.7 °C in the series on HeLa Kyoto [1] (cell cycle stage: mitosis). Besides, the “solubility change mitosis (log2)” value in the series on HeLa Kyoto [2] is -0.0998. In addition, the values for the thermal stability score in the series on HeLa Kyoto [3] (setting [5]) and in the series with HeLa Kyoto [3] (cell cycle stage: mitosis) were 1.09 and 0.444, respectively. Also, the “solubility in G1/S (log2)” value in the series with HeLa Kyoto [4] is -0.186.

“MAAPRAGRGAGWSLRAWRALGGIRWGRRPRLTPDLRALLTSGTSDPRARVTYGTPSLWARLSVGVTEPRACLTSGTPGPRAQLTAVTPDTRTREASENSGTRSRAWLAVALGAGGAVLLLLWGGGRGPPAVLAAVPSPPPASPRSQYNFIADVVEKTAPAVVYIEILDRHPFLGREVPISNGSGFVVAADGLIVTNAHVVADRRRVRVRLLSGDTYEAVVTAVDPVADIATLRIQTKEPLPTLPLGRSADVRQGEFVVAMGSPFALQNTITSGIVSSAQRPARDLGLPQTNVEYIQTDAAIDFGNSGGPLVNLDGEVIGVNTMKVTAGISFAIPSDRLREFLHRGEKKNSSSGISGSQRRYIGVMMLTLSPSILAELQLREPSFPDVQHGVLIHKVILGSPAHRAGLRPGDVILAIGEQMVQNAEDVYEAVRTQSQLAVQIRRGRETLTLYVTPEVTE [HTRA2]”: the melting temperature in the series on HeLa Kyoto [1] (cell cycle stage: G1/S) turned out to be 56.9 °C; with HeLa Kyoto [1] (cell cycle stage: mitosis), 56.5 °C. The “solubility change mitosis (log2)” value in the series with HeLa Kyoto [2] stood at 0.028. In addition, the thermal stability score with HeLa Kyoto [3] (setting [5]) was -2.4; with HeLa Kyoto [3] (cell cycle stage: mitosis), -3.14. Moreover, in the series on HeLa Kyoto [4], the “solubility in G1/S (log2)” value stood at 0.168.

“MAAPRPPPARLSGVMVPAPIQDLEALRALTALFKEQRNRETAPRTIFQRVLDILKKSSHAVELACRDPSQVENLASSLQLITECFRCLRNACIECSVNQNSIRNLDTIGVAVDLILLFRELRVEQESLLTAFRCGLQFLGNIASRNEDSQSIVWVHAFPELFLSCLNHPDKKIVAYSSMILFTSLNHERMKELEENLNIAIDVIDAYQKHPESEWPFLIITDLFLKSPELVQAMFPKLNNQERVTLLDLMIAKITSDEPLTKDDIPVFLRHAELIASTFVDQCKTVLKLASEEPPDDEEALATIRLLDVLCEMTVNTELLGYLQVFPGLLERVIDLLRVIHVAGKETTNIFSNCGCVRAEGDISNVANGFKSHLIRLIGNLCYKNKDNQDKVNELDGIPLILDNCNISDSNPFLTQWVIYAIRNLTEDNSQNQDLIAKMEEQGLADASLLKKVGFEVEKKGEKLILKSTRDTPKP [ATXN10]”: the melting temperature in the series with HeLa Kyoto [1] (cell cycle stage: G1/S) amounted to 51.9 °C; with HeLa Kyoto [1] (cell cycle stage: mitosis), 51.1 °C. Besides, the “solubility change mitosis (log2)” value in the series with HeLa Kyoto [2] is -0.135. For the same sequence, the thermal stability score in the series with HeLa Kyoto [3] (setting [5]) came to 0.984; in the series on HeLa Kyoto [3] (cell cycle stage: mitosis), 1.43. Moreover, the “solubility in G1/S (log2)” value with HeLa Kyoto [4] was determined as 0.202.

On to “MAAPSGGWNGVGASLWAALLLGAVALRPAEAVSEPTTVAFDVRPGGVVHSFSHNVGPGDKYTCMFTYASQGGTNEQWQMSLGTSEDHQHFTCTIWRPQGKSYLYFTQFKAEVRGAEIEYAMAYSKAAFERESDVPLKTEEFEVTKTAVAHRPGAFKAELSKLVIVAKASRTEL [MYDGF]”, for which the melting temperature in the series with HeLa Kyoto [1] (cell cycle stage: G1/S) and in the series on HeLa Kyoto [1] (cell cycle stage: mitosis) was 57.7 °C throughout. The “solubility change mitosis (log2)” value with HeLa Kyoto [2] was -0.192. The figures for the thermal stability score with HeLa Kyoto [3] (setting [5]) and in the series on HeLa Kyoto [3] (cell cycle stage: mitosis) were 2.14 and 0.789, respectively. Besides, the “solubility in G1/S (log2)” value with HeLa Kyoto [4] worked out at 0.19.

(Values after the supplement of paper PMC5998384.)
